Reference: patent EP4477673A1, “IMMUNOCONJUGATE AND USE THEREOF” (priority 2022, dated 2023)
Where two headings read alike, the source gives them in different places.

T1: IL-2Rβ/γ on M07e cells (human, UniProt P14784 27-551; P31785 23-369)
T1 sequence (looked up) 1: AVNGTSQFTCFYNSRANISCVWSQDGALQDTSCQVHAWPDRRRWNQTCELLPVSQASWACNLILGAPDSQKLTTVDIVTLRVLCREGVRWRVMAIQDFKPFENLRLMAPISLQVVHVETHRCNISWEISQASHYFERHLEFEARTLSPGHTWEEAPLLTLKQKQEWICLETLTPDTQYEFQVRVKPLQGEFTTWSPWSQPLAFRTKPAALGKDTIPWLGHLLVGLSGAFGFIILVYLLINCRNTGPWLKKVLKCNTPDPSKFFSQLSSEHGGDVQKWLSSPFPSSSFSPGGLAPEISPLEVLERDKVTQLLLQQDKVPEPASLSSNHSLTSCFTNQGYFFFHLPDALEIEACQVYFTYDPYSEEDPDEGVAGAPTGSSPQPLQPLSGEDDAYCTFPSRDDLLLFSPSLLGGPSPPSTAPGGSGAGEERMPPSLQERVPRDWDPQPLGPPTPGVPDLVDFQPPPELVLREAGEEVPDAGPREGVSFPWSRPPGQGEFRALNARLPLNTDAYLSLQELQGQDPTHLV
T1 sequence (looked up) 2: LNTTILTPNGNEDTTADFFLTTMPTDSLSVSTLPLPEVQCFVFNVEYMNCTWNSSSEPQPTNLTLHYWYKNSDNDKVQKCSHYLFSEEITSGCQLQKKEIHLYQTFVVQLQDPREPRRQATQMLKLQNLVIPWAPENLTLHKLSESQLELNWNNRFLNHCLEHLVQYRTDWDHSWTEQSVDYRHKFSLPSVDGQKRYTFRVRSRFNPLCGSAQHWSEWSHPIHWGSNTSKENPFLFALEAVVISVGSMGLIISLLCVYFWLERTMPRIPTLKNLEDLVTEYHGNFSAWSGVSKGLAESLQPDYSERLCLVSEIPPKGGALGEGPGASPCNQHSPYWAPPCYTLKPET

T2: human IL-2Rα receptor protein (Sino Biological, 10165-H08H) (human, UniProt P01589 22-213)
T2 construct: also called CD25
T2 sequence (looked up): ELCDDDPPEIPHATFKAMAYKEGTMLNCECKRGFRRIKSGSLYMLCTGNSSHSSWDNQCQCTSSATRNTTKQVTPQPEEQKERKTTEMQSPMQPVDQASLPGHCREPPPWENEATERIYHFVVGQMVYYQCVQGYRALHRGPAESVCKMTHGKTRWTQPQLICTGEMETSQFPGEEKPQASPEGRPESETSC

T3: human IL-2Rβ/γ receptor heterodimer protein (Acrosystem, ILG-H5283) (human, UniProt P14784 27-239; P31785 23-262, limits assumed)
T3 sequence (looked up) 1: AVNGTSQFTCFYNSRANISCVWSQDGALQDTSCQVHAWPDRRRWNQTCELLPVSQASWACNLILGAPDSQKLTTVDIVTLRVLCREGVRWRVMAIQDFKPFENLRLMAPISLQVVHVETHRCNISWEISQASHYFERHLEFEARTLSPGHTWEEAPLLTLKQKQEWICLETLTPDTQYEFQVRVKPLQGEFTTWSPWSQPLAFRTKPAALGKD
T3 sequence (looked up) 2: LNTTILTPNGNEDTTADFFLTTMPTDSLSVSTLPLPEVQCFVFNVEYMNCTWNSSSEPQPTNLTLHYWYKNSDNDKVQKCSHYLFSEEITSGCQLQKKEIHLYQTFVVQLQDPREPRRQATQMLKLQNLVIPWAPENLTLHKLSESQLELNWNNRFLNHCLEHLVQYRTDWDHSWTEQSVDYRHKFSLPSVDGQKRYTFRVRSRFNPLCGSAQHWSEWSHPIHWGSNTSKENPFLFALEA

B1: A-PC (Fc fusion)
chain (part 1 of 2): EVQLVESGGGLVQPGGSLRLSCAASGLTFSDYSMSWYRQAPGKGRELVAIISGSGVITHYVDSVKGRFTISRDNAKNTLYLQMRSLRAEDTAVYYCRAVSDWEDYWGQGTQVTVSS
chain (part 2 of 2): GGGGSGGGGSGGGGSAPASSSTKKTQLQLEHLLLDLQMILQGISNYKNPKLTRMLTAKFYMPKKATELKHLQCLEEELKPLEEVLQGAQSKNFHLRPRDLISNINVIVLELKGSETTFMCEYADETATIVEFLNRWITFAQSIISTLT
chain: EVQLVESGGGLVQPGGSLRLSCAASGLTFSDYSMSWYRQAPGKGRELVAIISGSGVITHYVDSVKGRFTISRDNAKNTLYLQMRSLRAEDTAVYYCRAVSDWEDYWGQGTQVTVSS
notes: also called positive control molecule A-PC; PD-1-IL-2v; not shown: IgG1 hinge (C220S) + Fc Knob chain (L234A, L235A, S354C, T366W, EU); D356/L358 or E356/M358 ver; IgG1 hinge (C220S) + Fc Hole chain (L234A, L235A, Y349C, T366S, L368A, Y407V; may have H435R, Y436F; EU)
B2: A-D20A (Fc fusion)
chain (part 1 of 2): EVQLVESGGGLVQPGGSLRLSCAASGLTFSDYSMSWYRQAPGKGRELVAIISGSGVITHYVDSVKGRFTISRDNAKNTLYLQMRSLRAEDTAVYYCRAVSDWEDYWGQGTQVTVSS
chain (part 2 of 2): GGGGSGGGGSGGGGSAPASSSTKKTQLQLEHLLLALQMILQGISNYKNPKLTRMLTAKFYMPKKATELKHLQCLEEELKPLEEVLQGAQSKNFHLRPRDLISNINVIVLELKGSETTFMCEYADETATIVEFLNRWITFAQSIISTLT
chain: EVQLVESGGGLVQPGGSLRLSCAASGLTFSDYSMSWYRQAPGKGRELVAIISGSGVITHYVDSVKGRFTISRDNAKNTLYLQMRSLRAEDTAVYYCRAVSDWEDYWGQGTQVTVSS
notes: also called PD-1-IL-2v (D20A); not shown: IgG1 hinge (C220S) + Fc Knob chain (L234A, L235A, S354C, T366W, EU); D356/L358 or E356/M358 ver; IgG1 hinge (C220S) + Fc Hole chain (L234A, L235A, Y349C, T366S, L368A, Y407V; may have H435R, Y436F; EU)

Assays:
human PD-1 [1] = target: T4, human PD-1 (human, UniProt Q15116 25-288); experiment: cell-based or functional assay
IL-2Rβ/γ on M07e cells = target: T1, IL-2Rβ/γ on M07e cells; experiment: cell-based or functional assay
human PD-1 [2] = target: T4, human PD-1; experiment: cell-based or functional assay; remark: listed apart in the source
human PD-1 [3] = target: T4, human PD-1; experiment: cell-based or functional assay; remark: listed apart in the source
[4] = target: T2, human IL-2Rα receptor protein (Sino …); experiment: SPR Biacore 8K, fusion protein captured by anti-human IgG (Fc), IL-2Rα as analyte
[5] = target: Human PD-1 antigen protein (Sino Biological, 10377-H08H) (human, UniProt Q15116 25-167); experiment: SPR Biacore 8K, fusion protein captured by anti-human IgG (Fc), human PD-1 as analyte
[6] = target: T3, human IL-2Rβ/γ receptor heterodimer …; experiment: SPR Biacore 8K, fusion protein captured by anti-human IgG (Fc), human IL-2Rβ/γ heterodimer as analyte
[7] = target: T3, human IL-2Rβ/γ receptor heterodimer …; experiment: SPR Biacore 8K; affinity for human IL-2Rβ/γ against A-PC

T4 sequence (Q15116 25-288 limits assumed): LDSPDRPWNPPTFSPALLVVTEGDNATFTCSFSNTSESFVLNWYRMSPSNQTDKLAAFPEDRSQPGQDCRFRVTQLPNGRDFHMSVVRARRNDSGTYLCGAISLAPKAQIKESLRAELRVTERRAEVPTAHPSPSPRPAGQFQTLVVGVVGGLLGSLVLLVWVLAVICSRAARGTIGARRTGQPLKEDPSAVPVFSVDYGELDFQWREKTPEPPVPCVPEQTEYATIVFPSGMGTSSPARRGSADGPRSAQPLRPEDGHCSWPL
Human PD-1 antigen protein (Sino Biological, 10377-H08H), sequence (Q15116 25-167 limits assumed): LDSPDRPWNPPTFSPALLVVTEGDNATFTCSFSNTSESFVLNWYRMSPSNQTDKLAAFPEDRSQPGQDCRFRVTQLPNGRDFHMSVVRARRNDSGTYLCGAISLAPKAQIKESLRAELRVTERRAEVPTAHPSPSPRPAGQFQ

Binder | M07e-hPD-1 cell proliferation activity (%) at 0.0001 nM (human PD-1 [1]) [%] | M07e-hPD-1 cell proliferation activity (%) at 0.001 nM (human PD-1 [1]) [%] | M07e-hPD-1 cell proliferation activity (%) at 0.01 nM (human PD-1 [1]) [%] | M07e-hPD-1 cell proliferation activity (%) at 0.1 nM (human PD-1 [1]) [%] | M07e-hPD-1 cell proliferation activity (%) at 1 nM (human PD-1 [1]) [%] | M07e-hPD-1 cell proliferation activity (%) at 10 nM (human PD-1 [1]) [%] | M07e-hPD-1 cell proliferation activity (%) at 100 nM (human PD-1 [1]) [%] | M07e-hPD-1 cell proliferation activity (%) at 1000 nM (human PD-1 [1]) [%] | M07e cell proliferation activity (%) at 0.46 nM (IL-2Rβ/γ on M07e cells) [%] | M07e cell proliferation activity (%) at 1.4 nM (IL-2Rβ/γ on M07e cells) [%] | M07e cell proliferation activity (%) at 4.1 nM (IL-2Rβ/γ on M07e cells) [%] | M07e cell proliferation activity (%) at 12 nM (IL-2Rβ/γ on M07e cells) [%] | M07e cell proliferation activity (%) at 37 nM (IL-2Rβ/γ on M07e cells) [%] | M07e cell proliferation activity (%) at 111 nM (IL-2Rβ/γ on M07e cells) [%] | M07e cell proliferation activity (%) at 333 nM (IL-2Rβ/γ on M07e cells) [%] | M07e cell proliferation activity (%) at 1000 nM (IL-2Rβ/γ on M07e cells) [%] | M07e-hPD-1 cell proliferation ratio (%) at 0.0001 nM (human PD-1 [2]) [%] | M07e-hPD-1 cell proliferation ratio (%) at 0.001 nM (human PD-1 [2]) [%] | M07e-hPD-1 cell proliferation ratio (%) at 0.01 nM (human PD-1 [2]) [%] | M07e-hPD-1 cell proliferation ratio (%) at 0.1 nM (human PD-1 [2]) [%] | further results
B1 | 1 | 3 | 28 | 87 | 99 | 98 | 102 | 100 | 0.1 | 3.6 | 28.1 | 41.6 | 71.7 | 87.2 | 89.8 | 100 | 2.4 | 4.9 | 33.7 | 79 | M07e-hPD-1 cell proliferation ratio (%) at 1 nM (human PD-1 [2]): 95.9%; M07e-hPD-1 cell proliferation ratio (%) at 10 nM (human PD-1 [2]): 113%; M07e-hPD-1 cell proliferation ratio (%) at 100 nM (human PD-1 [2]): 112%; M07e-hPD-1 cell proliferation ratio (%) at 1000 nM (human PD-1 [2]): 100%; M07e-hPD-1 cell proliferation ratio (%) at 0.0001 nM (human PD-1 [3]): 4%; M07e-hPD-1 cell proliferation ratio (%) at 0.001 nM (human PD-1 [3]): 8.1%; M07e-hPD-1 cell proliferation ratio (%) at 0.01 nM (human PD-1 [3]): 29.3%; M07e-hPD-1 cell proliferation ratio (%) at 0.1 nM (human PD-1 [3]): 99.5%; M07e-hPD-1 cell proliferation ratio (%) at 1 nM (human PD-1 [3]): 112%; M07e-hPD-1 cell proliferation ratio (%) at 10 nM (human PD-1 [3]): 107%; M07e-hPD-1 cell proliferation ratio (%) at 100 nM (human PD-1 [3]): 105%; M07e-hPD-1 cell proliferation ratio (%) at 1000 nM (human PD-1 [3]): 100%; binding result [4]: no binding; Kd [5]: 19.4 nM; koff [5]: 0.00182 s⁻¹; kon [5]: 93700 M⁻¹ s⁻¹; Kd [6]: 0.253 nM; koff [6]: 2.23e-05 s⁻¹; kon [6]: 88100 M⁻¹ s⁻¹
B2 | 2.3 | 2.9 | 11.4 | 24.2 | 28.5 | 30.2 | 32 | 39.2 | -3 | -2.6 | -1.6 | -3 | -3.7 | -2.4 | -1.9 | 0.6 | 0.6 | -0.3 | 2.6 | 8.4 | M07e-hPD-1 cell proliferation ratio (%) at 1 nM (human PD-1 [2]): 10.8%; M07e-hPD-1 cell proliferation ratio (%) at 10 nM (human PD-1 [2]): 10.8%; M07e-hPD-1 cell proliferation ratio (%) at 100 nM (human PD-1 [2]): 13.5%; M07e-hPD-1 cell proliferation ratio (%) at 1000 nM (human PD-1 [2]): 15.4%; fold lower affinity than A-PC [7]: ~63 fold; binding result [4]: no binding; Kd [5]: 18.5 nM; koff [5]: 0.00168 s⁻¹; kon [5]: 90600 M⁻¹ s⁻¹; Kd [6]: 16 nM; koff [6]: 0.000681 s⁻¹; kon [6]: 42700 M⁻¹ s⁻¹
